In patent publication US12679878B2, “CRF2 receptor agonists and their use in therapy” (SANOFI, priority 2020, dated 2026):
Starred links: 1 amine or outer side, 2 acyl side, 3 side chain; linkers in the order of their positions; H or OH if unused. Non-standard residues stand in square brackets, D forms with d. Groups on a side chain read outwards from the residue. No end group written: not given here. *: point of attachment. C18 diacid = O=C(O)CCCCCCCCCCCCCCCCC(=O)*; γGlu = O=C(O)[C@H](CCC(=O)[*:2])N[*:1]; AEEA = NCCOCCOCC(=O)O; Aib = CC(C)(N)C(=O)O

B1: SEQ ID NO: 45 (peptide)
peptide: IVLSLDVPIKLK([AEEA-AEEA-γGlu-C18 diacid])QILLEQAKQK[Aib]LKAQAETNVRILERV-NH2
modifications: N-terminus assumed
SMILES: CC[C@H](C)[C@H](N)C(=O)N[C@H](C(=O)N[C@@H](CC(C)C)C(=O)N[C@@H](CO)C(=O)N[C@@H](CC(C)C)C(=O)N[C@@H](CC(=O)O)C(=O)N[C@H](C(=O)N1CCC[C@H]1C(=O)N[C@H](C(=O)N[C@@H](CCCCN)C(=O)N[C@@H](CC(C)C)C(=O)N[C@@H](CCCCNC(=O)COCCOCCNC(=O)COCCOCCNC(=O)CC[C@H](NC(=O)CCCCCCCCCCCCCCCCC(=O)O)C(=O)O)C(=O)N[C@@H](CCC(N)=O)C(=O)N[C@H](C(=O)N[C@@H](CC(C)C)C(=O)N[C@@H](CC(C)C)C(=O)N[C@@H](CCC(=O)O)C(=O)N[C@@H](CCC(N)=O)C(=O)N[C@@H](C)C(=O)N[C@@H](CCCCN)C(=O)N[C@@H](CCC(N)=O)C(=O)N[C@@H](CCCCN)C(=O)NC(C)(C)C(=O)N[C@@H](CC(C)C)C(=O)N[C@@H](CCCCN)C(=O)N[C@@H](C)C(=O)N[C@@H](CCC(N)=O)C(=O)N[C@@H](C)C(=O)N[C@@H](CCC(=O)O)C(=O)N[C@H](C(=O)N[C@@H](CC(N)=O)C(=O)N[C@H](C(=O)N[C@@H](CCCNC(=N)N)C(=O)N[C@H](C(=O)N[C@@H](CC(C)C)C(=O)N[C@@H](CCC(=O)O)C(=O)N[C@@H](CCCNC(=N)N)C(=O)N[C@H](C(N)=O)C(C)C)[C@@H](C)CC)C(C)C)[C@@H](C)O)[C@@H](C)CC)[C@@H](C)CC)C(C)C)C(C)C
B2: SEQ ID NO: 46 (peptide)
peptide: IVLSLDVPIKLK([AEEA-AEEA-γGlu-C18 diacid])QILLEQAKQK[Aib]LRAQAETNVRILERV-NH2
modifications: N-terminus assumed
SMILES: CC[C@H](C)[C@H](N)C(=O)N[C@H](C(=O)N[C@@H](CC(C)C)C(=O)N[C@@H](CO)C(=O)N[C@@H](CC(C)C)C(=O)N[C@@H](CC(=O)O)C(=O)N[C@H](C(=O)N1CCC[C@H]1C(=O)N[C@H](C(=O)N[C@@H](CCCCN)C(=O)N[C@@H](CC(C)C)C(=O)N[C@@H](CCCCNC(=O)COCCOCCNC(=O)COCCOCCNC(=O)CC[C@H](NC(=O)CCCCCCCCCCCCCCCCC(=O)O)C(=O)O)C(=O)N[C@@H](CCC(N)=O)C(=O)N[C@H](C(=O)N[C@@H](CC(C)C)C(=O)N[C@@H](CC(C)C)C(=O)N[C@@H](CCC(=O)O)C(=O)N[C@@H](CCC(N)=O)C(=O)N[C@@H](C)C(=O)N[C@@H](CCCCN)C(=O)N[C@@H](CCC(N)=O)C(=O)N[C@@H](CCCCN)C(=O)NC(C)(C)C(=O)N[C@@H](CC(C)C)C(=O)N[C@@H](CCCNC(=N)N)C(=O)N[C@@H](C)C(=O)N[C@@H](CCC(N)=O)C(=O)N[C@@H](C)C(=O)N[C@@H](CCC(=O)O)C(=O)N[C@H](C(=O)N[C@@H](CC(N)=O)C(=O)N[C@H](C(=O)N[C@@H](CCCNC(=N)N)C(=O)N[C@H](C(=O)N[C@@H](CC(C)C)C(=O)N[C@@H](CCC(=O)O)C(=O)N[C@@H](CCCNC(=N)N)C(=O)N[C@H](C(N)=O)C(C)C)[C@@H](C)CC)C(C)C)[C@@H](C)O)[C@@H](C)CC)[C@@H](C)CC)C(C)C)C(C)C
B3: SEQ ID NO: 48 (peptide)
peptide: IVLSLDVPIKLK([AEEA-AEEA-γGlu-C18 diacid])QILLEQERQR[Aib]ERQQAETNVQILAQV-NH2
modifications: N-terminus assumed
SMILES: CC[C@H](C)[C@H](N)C(=O)N[C@H](C(=O)N[C@@H](CC(C)C)C(=O)N[C@@H](CO)C(=O)N[C@@H](CC(C)C)C(=O)N[C@@H](CC(=O)O)C(=O)N[C@H](C(=O)N1CCC[C@H]1C(=O)N[C@H](C(=O)N[C@@H](CCCCN)C(=O)N[C@@H](CC(C)C)C(=O)N[C@@H](CCCCNC(=O)COCCOCCNC(=O)COCCOCCNC(=O)CC[C@H](NC(=O)CCCCCCCCCCCCCCCCC(=O)O)C(=O)O)C(=O)N[C@@H](CCC(N)=O)C(=O)N[C@H](C(=O)N[C@@H](CC(C)C)C(=O)N[C@@H](CC(C)C)C(=O)N[C@@H](CCC(=O)O)C(=O)N[C@@H](CCC(N)=O)C(=O)N[C@@H](CCC(=O)O)C(=O)N[C@@H](CCCNC(=N)N)C(=O)N[C@@H](CCC(N)=O)C(=O)N[C@@H](CCCNC(=N)N)C(=O)NC(C)(C)C(=O)N[C@@H](CCC(=O)O)C(=O)N[C@@H](CCCNC(=N)N)C(=O)N[C@@H](CCC(N)=O)C(=O)N[C@@H](CCC(N)=O)C(=O)N[C@@H](C)C(=O)N[C@@H](CCC(=O)O)C(=O)N[C@H](C(=O)N[C@@H](CC(N)=O)C(=O)N[C@H](C(=O)N[C@@H](CCC(N)=O)C(=O)N[C@H](C(=O)N[C@@H](CC(C)C)C(=O)N[C@@H](C)C(=O)N[C@@H](CCC(N)=O)C(=O)N[C@H](C(N)=O)C(C)C)[C@@H](C)CC)C(C)C)[C@@H](C)O)[C@@H](C)CC)[C@@H](C)CC)C(C)C)C(C)C
B4: SEQ ID NO: 49 (peptide)
peptide: IVLSLDVPIKLK([AEEA-AEEA-γGlu-C18 diacid])QILLEQERQR[Aib]ERQQAETNVRILERV-NH2
modifications: N-terminus assumed
SMILES: CC[C@H](C)[C@H](N)C(=O)N[C@H](C(=O)N[C@@H](CC(C)C)C(=O)N[C@@H](CO)C(=O)N[C@@H](CC(C)C)C(=O)N[C@@H](CC(=O)O)C(=O)N[C@H](C(=O)N1CCC[C@H]1C(=O)N[C@H](C(=O)N[C@@H](CCCCN)C(=O)N[C@@H](CC(C)C)C(=O)N[C@@H](CCCCNC(=O)COCCOCCNC(=O)COCCOCCNC(=O)CC[C@H](NC(=O)CCCCCCCCCCCCCCCCC(=O)O)C(=O)O)C(=O)N[C@@H](CCC(N)=O)C(=O)N[C@H](C(=O)N[C@@H](CC(C)C)C(=O)N[C@@H](CC(C)C)C(=O)N[C@@H](CCC(=O)O)C(=O)N[C@@H](CCC(N)=O)C(=O)N[C@@H](CCC(=O)O)C(=O)N[C@@H](CCCNC(=N)N)C(=O)N[C@@H](CCC(N)=O)C(=O)N[C@@H](CCCNC(=N)N)C(=O)NC(C)(C)C(=O)N[C@@H](CCC(=O)O)C(=O)N[C@@H](CCCNC(=N)N)C(=O)N[C@@H](CCC(N)=O)C(=O)N[C@@H](CCC(N)=O)C(=O)N[C@@H](C)C(=O)N[C@@H](CCC(=O)O)C(=O)N[C@H](C(=O)N[C@@H](CC(N)=O)C(=O)N[C@H](C(=O)N[C@@H](CCCNC(=N)N)C(=O)N[C@H](C(=O)N[C@@H](CC(C)C)C(=O)N[C@@H](CCC(=O)O)C(=O)N[C@@H](CCCNC(=N)N)C(=O)N[C@H](C(N)=O)C(C)C)[C@@H](C)CC)C(C)C)[C@@H](C)O)[C@@H](C)CC)[C@@H](C)CC)C(C)C)C(C)C

What follows are binders tested against human corticotropin-releasing factor 2α (CRF2 α receptor) (human), Q13324 (assay: cell-based or functional assay).
Chain of human corticotropin-releasing factor 2α (CRF2 α receptor) (human), Q13324 (Q13324 20-411): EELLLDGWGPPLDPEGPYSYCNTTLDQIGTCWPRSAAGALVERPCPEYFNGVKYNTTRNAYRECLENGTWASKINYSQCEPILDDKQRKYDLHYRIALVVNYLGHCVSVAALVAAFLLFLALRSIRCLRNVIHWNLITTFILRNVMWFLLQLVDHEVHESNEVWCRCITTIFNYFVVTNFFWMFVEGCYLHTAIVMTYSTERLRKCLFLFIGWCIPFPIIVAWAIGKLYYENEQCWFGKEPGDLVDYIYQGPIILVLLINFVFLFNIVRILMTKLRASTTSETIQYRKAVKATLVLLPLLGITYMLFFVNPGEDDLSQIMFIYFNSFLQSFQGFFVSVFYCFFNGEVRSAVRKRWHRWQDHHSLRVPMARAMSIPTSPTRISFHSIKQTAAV

Binder | EC50 [nM], 0% HSA [nM]
B1 | 3.77
B2 | 0.52
IVLSLD[dV]PTKLK([AEEA-AEEA-γGlu-C18 diacid])KKLLKQERKR[Aib]EREKAEKAARILERV-NH2 [SEQ ID NO: 47] | 6.85
B3 | 2.2
B4 | 12.7
